T1: human TPO receptor (MPL) expressed on Ba/F3 cells (human, UniProt P40238 26-635)
T1 sequence (looked up): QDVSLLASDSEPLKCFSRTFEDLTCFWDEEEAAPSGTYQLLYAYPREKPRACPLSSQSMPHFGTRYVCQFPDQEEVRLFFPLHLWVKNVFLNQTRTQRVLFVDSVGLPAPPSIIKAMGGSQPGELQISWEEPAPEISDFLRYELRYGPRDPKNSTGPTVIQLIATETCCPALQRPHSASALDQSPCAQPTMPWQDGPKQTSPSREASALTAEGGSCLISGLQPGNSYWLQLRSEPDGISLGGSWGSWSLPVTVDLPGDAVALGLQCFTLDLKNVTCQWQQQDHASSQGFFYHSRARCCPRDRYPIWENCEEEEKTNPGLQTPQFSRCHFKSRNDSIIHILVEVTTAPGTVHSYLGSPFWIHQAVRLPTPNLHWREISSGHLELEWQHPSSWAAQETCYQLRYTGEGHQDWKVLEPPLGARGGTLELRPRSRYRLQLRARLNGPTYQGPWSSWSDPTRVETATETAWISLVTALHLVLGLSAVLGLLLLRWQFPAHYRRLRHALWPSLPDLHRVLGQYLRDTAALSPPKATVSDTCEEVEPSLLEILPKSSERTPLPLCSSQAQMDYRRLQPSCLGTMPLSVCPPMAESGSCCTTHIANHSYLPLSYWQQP


Assays:
[1] = biological target: T1, human TPO receptor (MPL) expressed on …; test: cell-based or functional assay
[2] = biological target: T2, human Integrin Associated Protein (IAP) expressed on mouse leukemia cell line L1210 (human, UniProt Q08722 19-323); test: flow cytometry, COS7 supernatant on hIAP/L1210 cells, anti-FLAG and FITC anti-mouse IgG
T2 construct: whole, on cells; also called human IAP; hIAP/L1210
T2 sequence (Q08722 19-323): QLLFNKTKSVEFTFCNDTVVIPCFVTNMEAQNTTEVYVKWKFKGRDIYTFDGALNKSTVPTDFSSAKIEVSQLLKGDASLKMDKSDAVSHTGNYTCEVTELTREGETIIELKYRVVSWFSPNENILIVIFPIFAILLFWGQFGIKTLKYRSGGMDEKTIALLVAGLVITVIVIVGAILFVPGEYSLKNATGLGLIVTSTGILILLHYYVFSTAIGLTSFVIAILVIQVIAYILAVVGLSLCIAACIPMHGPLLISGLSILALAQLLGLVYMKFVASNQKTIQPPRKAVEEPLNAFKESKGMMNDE
Protocol: Flow cytometry was performed using the aforementioned COS7 cells culture supernatant to measure the binding to the antigen. The culture supernatant of the COS7 cells expressing the reconstructed single chain Fv of antibody MABL-2 or the culture supernatant of COS7 cells transformed with pCHO1 vector as a control was added to 2×10⁵ cells of the mouse leukemia cell line L1210 expressing human Integrin Associated Protein (IAP) or the cell line L1210 transformed with pCOS1 as a control. After incubating on ice and washing, the mouse anti-FLAG antibody (SIGMA) was added. Then the cells were incubated and washed. Then, the FITC labeled anti-mouse IgG antibody (BECTON DICKINSON) was added thereto and the cells were incubated and washed again. Subsequently, the fluorescence intensity was measured using the FACScan apparatus (BECTON DICKINSON).
Flow cytometry was performed using the culture supernatants of COS7 cells prepared in Example 6.3 (1) to measure the binding of the MABL2-scFVs and sc(Fv)₂ to human Integrin Associated Protein (IAP) antigen. The culture supernatants to be tested or a culture supernatant of COS7 cells as a control was added to 2×10⁵ cells of the mouse leukemia cell line L1210 expressing human IAP. After incubating on ice and washing, 10 μg/mL of the mouse anti-FLAG antibody (SIGMA) was added and then the cells were incubated and washed. Then, the FITC labeled anti-mouse IgG antibody (BECTON DICKINSON) was added thereto and the cells were incubated and washed again. The fluorescence intensity was measured using the FACScan apparatus (BECTON DICKINSON). […] (see FIGS. 40a and 40b).

[3] = biological target: T2, human Integrin Associated Protein (IAP) …; test: flow cytometry, COS7 supernatant on hIAP/L1210 cells, FITC anti-human IgG
Protocol: Flow cytometry was performed using the aforementioned culture supernatant of COS7 cells to measure binding to the antigen. The culture supernatant of the COS7 cells expressing the chimera MABL-1 antibody or the COS7 cells expressing the chimera MABL-2 antibody, or human IgG antibody (SIGMA) as a control was added to 4×10⁵ cells of mouse leukemia cell line L1210 expressing human IAP and incubated on ice. After washing, the FITC-labeled anti-human IgG antibody (Cappel) was added thereto. After incubating and washing, the fluorescence intensity thereof was measured using the FACScan apparatus (BECTON DICKINSON).

[4] = biological target: T3, secretion-type human IAP antigen (human, UniProt Q08722 19-142, limits assumed); test: competitive ELISA on captured secretion-type human IAP; competitor biotinized MABL-2
T3 construct: also called human IAP antigen (soluble, COS7 supernatant)
T3 sequence (Q08722 other isoform, or with tags, fused parts or gaps limits assumed): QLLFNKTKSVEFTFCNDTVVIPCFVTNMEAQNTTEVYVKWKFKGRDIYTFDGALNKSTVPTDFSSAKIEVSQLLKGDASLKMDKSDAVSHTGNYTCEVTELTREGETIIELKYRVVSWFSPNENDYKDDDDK
Protocol: The binding activity of the reconstructed single chain Fv of antibody MABL-2 was measured based on the inhibiting activity against the binding of mouse monoclonal antibodies to the antigen.
The anti-FLAG antibody adjusted to 1 μg/ml was added to each well on 96-well plate and incubated at 37° C. for 2 hours. After washing, blocking was performed with 1% BSA-PBS. After incubating and washing at a room temperature, the culture supernatant of COS7 cells into which the secretion-type human IAP antigen gene (SEQ ID No. 26) had been introduced was diluted with PBS into twofold volume and added to each well. After incubating and washing at a room temperature, a mixture of 50 μl of the biotinized MABL-2 antibody adjusted to 100 ng/ml and 50 μl of sequentially diluted supernatant of the COS7 cells expressing the reconstructed single chain Fv of antibody MABL-2 were added into each well. After incubating and washing at a room temperature, the alkaline phosphatase-conjugated streptoavidin (Zymed) was added into each well. After incubating and washing at a room temperature, the substrate solution (SIGMA) was added and absorbance of the reaction mixture in each well was measured at 405 nm.

| Binder | ED50, TPO-like agonist activity (proliferation of BaF/mpl cells, WST-8) [1] [nM] | binding result [2] | also measured |
| --- | --- | --- | --- |
| reconstructed 12B5 single chain Fv (sc12B5), culture supernatant of COS-7 cells (scFv) scFv: QVQLVQSGGGLVRPGGSLSLSCAVSGITLRTYGMHWVRQAPGKGLEWVAGISFDGRSEYYADSVQGRFTISRDSSKNTLYLQMNSLRAEDTAVYYCARGAHYGFDIWGQGTMVTVSSGGGGSGGGGSGGGGSDIQMTQSPSTLSASIGDRVTITCRASEGIYHWLAWYQQKPGKAPKLLIYKASSLASGAPSRFSGSGSGTDFTLTISSLQPDDFATYYCQQYSNYPLTFGGGTKLEIKDYKDDDDK | 75 | – | – |
| sc12B5 dimer (scFv) scFv: QVQLVQSGGGLVRPGGSLSLSCAVSGITLRTYGMHWVRQAPGKGLEWVAGISFDGRSEYYADSVQGRFTISRDSSKNTLYLQMNSLRAEDTAVYYCARGAHYGFDIWGQGTMVTVSSGGGGSGGGGSGGGGSDIQMTQSPSTLSASIGDRVTITCRASEGIYHWLAWYQQKPGKAPKLLIYKASSLASGAPSRFSGSGSGTDFTLTISSLQPDDFATYYCQQYSNYPLTFGGGTKLEIKDYKDDDDK | 10.1 | – | fold agonist activity against monovalent sc12B5 [1]: ~400 fold |
| sc12B5 monomer (scFv) scFv: QVQLVQSGGGLVRPGGSLSLSCAVSGITLRTYGMHWVRQAPGKGLEWVAGISFDGRSEYYADSVQGRFTISRDSSKNTLYLQMNSLRAEDTAVYYCARGAHYGFDIWGQGTMVTVSSGGGGSGGGGSGGGGSDIQMTQSPSTLSASIGDRVTITCRASEGIYHWLAWYQQKPGKAPKLLIYKASSLASGAPSRFSGSGSGTDFTLTISSLQPDDFATYYCQQYSNYPLTFGGGTKLEIKDYKDDDDK | 4440 | – | – |
| 12B5Fab (Fab, V domains shown) VH: QVQLVQSGGGLVRPGGSLSLSCAVSGITLRTYGMHWVRQAPGKGLEWVAGISFDGRSEYYADSVQGRFTISRDSSKNTLYLQMNSLRAEDTAVYYCARGAHYGFDIWGQGTMVTVSS VL: DIQMTQSPSTLSASIGDRVTITCRASEGIYHWLAWYQQKPGKAPKLLIYKASSLASGAPSRFSGSGSGTDFTLTISSLQPDDFATYYCQQYSNYPLTFGGGTKLEIK | 34700 | – | – |
| MABL2-scFv <HL-0> (scFv, COS7 culture supernatant; also called CF2HL-0/pCOS1) scFv: QVQLQQSGPELVKPGASVKMSCKASGYTFANHVIHWVKQKPGQGLEWIGYIYPYNDGTKYNEKFKDKATLTSDKSSTTAYMDLSSLASEDSAVYYCARGGYYTYDDWGQGTTLTVSSDVVMTQSPLSLPVSLGDQASISCRSSQSLVHSNGKTYLHWYLQKPGQSPKLLIYKVSNRFSGVPDRFSGSGSVTDFTLMISRVEAEDLGVYFCSQSTHVPYTFGGGTKLEIKDYKDDDDK | – | binds | – |
| chimera MABL-1 antibody (antibody, V domains shown, Mouse V regions cloned into HEF-gamma and HEF-kappa vectors with human C regions; COS7 culture supernatant) VH: QVQLQQSGPDLVKPGASVKMSCKASGYTFVNHVMHWVKQKPGQGLEWIGYIYPYNDGTKYNEKFKGKATLTSEKSSSAAYMELSSLASEDSAVYYCARGGYYSYDDWGQGTTLTVSS VL: DVVMTQTPLSLPVSLGDQASISCRSSQSLLHSKGNTYLQWYLQKPGQSPKLLIYKVSNRFSGVPDRFSGSGSGTDFTLKISRVEAEDLGVYFCSQSTHVPYTSGGGTKLEIK | – | – | binding result [3]: binds |
| chimera MABL-2 antibody (antibody, V domains shown, Mouse V regions cloned into HEF-gamma and HEF-kappa vectors with human C regions; COS7 culture supernatant) VH: QVQLQQSGPELVKPGASVKMSCKASGYTFANHVIHWVKQKPGQGLEWIGYIYPYNDGTKYNEKFKDKATLTSDKSSTTAYMDLSSLASEDSAVYYCARGGYYTYDDWGQGTTLTVSS VL: DVVMTQSPLSLPVSLGDQASISCRSSQSLVHSNGKTYLHWYLQKPGQSPKLLIYKVSNRFSGVPDRFSGSGSVTDFTLMISRVEAEDLGVYFCSQSTHVPYTFGGGTKLEIK | – | – | binding result [3]: binds |
| antibody MABL-2 sc(Fv)2 (scFv, Single chain bivalent antibody; also called pCHOM2(Fv)2) scFv: QVQLQQSGPELVKPGASVKMSCKASGYTFANHVIHWVKQKPGQGLEWIGYIYPYNDGTKYNEKFKDKATLTSDKSSTTAYMDLSSLASEDSAVYYCARGGYYTYDDWGQGTTLTVSSGGGGSGGGGSGGGGSDVVMTQSPLSLPVSLGDQASISCRSSQSLVHSNGKTYLHWYLQKPGQSPKLLIYKVSNRFSGVPDRFSGSGSVTDFTLMISRVEAEDLGVYFCSQSTHVPYTFGGGTKLEIKGGGGSGGGGSGGGGSVDSQVQLQQSGPELVKPGASVKMSCKASGYTFANHVIHWVKQKPGQGLEWIGYIYPYNDGTKYNEKFKDKATLTSDKSSTTAYMDLSSLASEDSAVYYCARGGYYTYDDWGQGTTLTVSSGGGGSGGGGSGGGGSDVVMTQSPLSLPVSLGDQASISCRSSQSLVHSNGKTYLHWYLQKPGQSPKLLIYKVSNRFSGVPDRFSGSGSVTDFTLMISRVEAEDLGVYFCSQSTHVPYTFGGGTKLEIKDYKDDDDK | – | binds | – |
| reconstructed single chain Fv of antibody MABL-2 (pCHOM2, COS7 culture supernatant) (scFv, Unpurified COS7 supernatant; also called MABL2-scFv; MABL2-scFv/COS7) scFv: QVQLQQSGPELVKPGASVKMSCKASGYTFANHVIHWVKQKPGQGLEWIGYIYPYNDGTKYNEKFKDKATLTSDKSSTTAYMDLSSLASEDSAVYYCARGGYYTYDDWGQGTTLTVSSGGGGSGGGGSGGGGSDVVMTQSPLSLPVSLGDQASISCRSSQSLVHSNGKTYLHWYLQKPGQSPKLLIYKVSNRFSGVPDRFSGSGSVTDFTLMISRVEAEDLGVYFCSQSTHVPYTFGGGTKLEIKDYKDDDDK | – | binds | binding result [4]: binds |

More lines, main results first:

| ED50, TPO-like agonist activity (proliferation of BaF/mpl cells, WST-8) [1] [nM] | binding result [2] | Binder | also measured |
| --- | --- | --- | --- |
| 29 | – | antibody 12B5 (IgG) (antibody, V domains shown) VH: QVQLVQSGGGLVRPGGSLSLSCAVSGITLRTYGMHWVRQAPGKGLEWVAGISFDGRSEYYADSVQGRFTISRDSSKNTLYLQMNSLRAEDTAVYYCARGAHYGFDIWGQGTMVTVSS VL: DIQMTQSPSTLSASIGDRVTITCRASEGIYHWLAWYQQKPGKAPKLLIYKASSLASGAPSRFSGSGSGTDFTLTISSLQPDDFATYYCQQYSNYPLTFGGGTKLEIK | – |
| – | binds | MABL2-scFv <LH-0> (scFv, COS7 culture supernatant; also called CF2LH-0/pCOS1) scFv: DVVMTQSPLSLPVSLGDQASISCRSSQSLVHSNGKTYLHWYLQKPGQSPKLLIYKVSNRFSGVPDRFSGSGSVTDFTLMISRVEAEDLGVYFCSQSTHVPYTFGGGTKLEIKQVQLQQSGPELVKPGASVKMSCKASGYTFANHVIHWVKQKPGQGLEWIGYIYPYNDGTKYNEKFKDKATLTSDKSSTTAYMDLSSLASEDSAVYYCARGGYYTYDDWGQGTTLTVSSDYKDDDDK | – |

— patent publication US20040058393A1 (published 2004)
